Laboratory results published in paper PMC12643800.

Key:
[1] = target: commercially available asparaginase Ec-AsnB (MEDAC, Germany) (E. coli) (UniProt P00805); test: SEC; Superdex 200 Increase 10/300 GL on FPLC, 0.5 ml/min, 150 ug protein loaded; molecular mass from a calibration curve with carbonic anhydrase, ovalbumin, conalbumin and aldolase; proteins loaded individually
[2] = target: Escherichia coli L-asparaginase II (AsnB) expressed in and secreted from Corynebacterium glutamicum (E. coli K-12) (UniProt P00805); test: as above

stoichiometry N [1] | stoichiometry N [2] | Substance
4 | – | commercially available asparaginase Ec-AsnB (MEDAC, Germany) (from UniProt P00805 23-348) (enzyme)
– | 4 | Escherichia coli L-asparaginase II (AsnB) expressed in and secreted from Corynebacterium glutamicum (from UniProt P00805 23-348) (enzyme)
